# Source: article PMC11480844 (2024)
# B1: H2-Kb / Ed23 (parent complex)
# chain 1: QQKVQQSPESLTVSEGAMASLNCTFSDRSSDNFRWYRQHSGKGLEVLVSIFSDGEKEEGSFTAHLNRASLHVFLHIREPQPSDSALYLCAVRGFWTNKVVFGTGTRLQVLP
# chain 2: AQTIHQWPVAEIKAVGSPLSLGCTIKGKSSPNLYWYWQATGGTLQQLFYSITVGQVESVVQLNLSASRPKDDQFILSTEKLLLSHSGFYLCAWSPRQSSYEQYFGPGTRLTVL
# chain 3: not shown
# chain 4: IQKTPQIQVYSRHPPENGKPNILNCYVTQFHPPHIEIQMLKNGKKIPKVEMSDMSFSKDWSFYILAHTEFTPTETDTYACRVKHDSMAEPKTVYWDRDM
# chain 5: SIINFEKL
# Variants of: B1
# Assay: % of reporter cells activated (NFAT-GFP), raw; note: test concentration or dose not given here
row,Variant,ratio to parent
1,chain 5 F5L,1.17
2,chain 5 F5Q,1.41
3,chain 5 L8D,0.909
4,chain 5 L8T,1.02
5,chain 5 L8M,0.785
6,chain 5 L8S,0.828
7,chain 5 L8H,1.25
8,chain 5 L8E,0.833
9,chain 5 L8A,0.692
10,chain 5 I3F,0.433
11,chain 5 I3E,1.21
12,chain 5 I3M,1.24
13,chain 5 I3N,1.38
14,chain 5 I3H,1.55
15,chain 5 I3T,1.22
16,chain 5 I3P,1.29
17,chain 5 I3C,1.2

row,Variant,ratio to parent
1,chain 5 S1E,1.27
2,chain 5 S1W,0.515
3,chain 5 S1M,0.348
4,chain 5 S1L,0.454
5,chain 5 S1Q,1.61
6,chain 5 I2T,1.47
7,chain 5 E6C,0.0131
8,chain 5 K7Q,0.132
9,chain 5 K7I,0.142
10,chain 5 K7D,0.155
11,chain 5 K7E,0.0934
12,chain 5 K7Y,0.654
13,chain 5 N4L,0.631
14,chain 5 N4C,0.108
15,chain 5 N4P,0.71
16,chain 5 N4Q,0.0702
17,chain 5 N4G,0.451
